Data set [1] addresses T1, P1MYB (N6His-ZmP1MYB) (Zea mays, UniProt P27898 9-116). Kind of data set: competition.
In data set [2] the target is T1, P1MYB (N6His-ZmP1MYB). In words: EMSA. On the technique in general: Mobility shift assays separate free from complexed probe on a gel.
For data set [3], the target named is T1, P1MYB (N6His-ZmP1MYB). Kind of data set: EMSA. The source holds these as a separate data set.

T1 sequence (P27898 9-116): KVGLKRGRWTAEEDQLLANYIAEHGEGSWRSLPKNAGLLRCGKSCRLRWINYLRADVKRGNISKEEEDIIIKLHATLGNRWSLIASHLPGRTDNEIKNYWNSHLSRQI

B1: comp2 (dsDNA)
DNA 1: CCAAGTCAAAATCCAACCATTATCTCTTGA
DNA 2: TCAAGAGATAATGGTTGGATTTTGACTTGG
B1: the binding result with P1MYB (N6His-ZmP1MYB) [1] was “binds”.

B2: FLSbind (dsDNA)
DNA 1: GAGTTTCTGGTAGGTGCGTCGTACGGCCAG
DNA 2: CTGGCCGTACGACGCACCTACCAGAAACTC
As for B2, the binding result with P1MYB (N6His-ZmP1MYB) [2] was “binds”.

B3: comp3 (dsDNA)
DNA 1: TAGATGTGATTCGTTAGGTGTGTTTTTATAA
DNA 2: TTATAAAAACACACCTAACGAATCACATCTA
As to B3, the binding result with P1MYB (N6His-ZmP1MYB) [1] is reported as “binds”.

B4: APB1 (dsDNA)
DNA 1: GATCCGGGTCAGTGTACCTACCAACCTTAAACAC
DNA 2: GATCGTGTTTAAGGTTGGTAGGTACACTGACCCG
As for B4, the binding result with P1MYB (N6His-ZmP1MYB) [3] is recorded as “binds”.

B5: comp1 (dsDNA)
DNA 1: CTATTACTCGTTAGTTGGATTTTAGTTT
DNA 2: AAACTAAAATCCAACTAACGAGTAATAG
Turning to B5, in the data set with P1MYB (N6His-ZmP1MYB) [1], the binding result is listed as “binds”.
